Results taken from the DeepSol protein solubility set.

experiment: soluble on expression in E. coli; label from the status in PepcDB or PDB records

Row | Sequence | soluble on expression in E. coli
1 | MITIKFDLNRYSCSWGAGGAFGGNRGLRPIPPEKGIFPLDHLHECDAVFFNKRFFL | not soluble
2 | MKTLVHLSDLHFGKTESHLVDAIAAEVRAVDSDLLVVSGDLTQRARKDEFLQARAFLDSLPGPRIVVPGNHDVPLWNVFARAMTPLSRYRRYIEADTDPFYADSEVAVVGINTARSLTIKNGRINVRQLKAATEKFAYMSDDITRIVVTHHPFEGLDLESDDGIVARADLAMDAFSRSGVDIILSGHQHLHRAGSSARRYLIDGYAALLVQAGTAVSSRVRQAANSFNIIRIEHPRISIECRAWQSLQSGFETSASYSFRQGSGGWEPALEHHHHHH | not soluble
3 | MAHHHHHHMPSPQSLTGTPRSLQHAPLPAQVVRDALPLRRDVSDLLPVEQLRVLHVLTIAGMPRPHNTHSATISCRLSSPIMSATPNAYWRTCSMRCISVPSLCLEQTLPSSQSTAWMPREAADRSSVCGRSKCAETTATLTPSDISTHSTLPHKRAVPWEREVRRTVLA | not soluble
4 | MRFRPFTEEDLDRLNRLAGKRPVSLGALRFFARTGHSFLAEEGEEPMGFALAQAVWQGEATTVLVTRMEGRSVEALRGLLRAVVKSAYDAGVYEVALHLDPERKELEEALKAEGFALGPLVLAVRVLGSRGARGETRGVLE | soluble
5 | MSLKQIIDNVEVYILTGPKEKRPHWVSHFIVPTANELLVKIKTKQGLEGFGIATNYSDINPVIEVFKTDFLDNFIGMDATCPEVIYEKIFNLTSQKLSFEKKWGKEPLIRISAAIDIACWDLIGKASGFPLYKLFGGYRDKVPCYVTCAYYRDGKDNKELKDEIEMLVGQGHQGFKGKVGGLSLREDLERMNIIRDVIGDEKSLMIDVNRAWDLKTASEAVNLLKPINPFWLEEPVRWADDRRELKLLSQKTEIPISGGESELTIYGCRSMLEEQAIQILQFDCTMFGGFTAGKKLSALCEVNHVDIAPHHDCFIHAHIVAGSPSGLIVESFTDPERDPLQAELFTNPPKIENGWLYLNEEPGLGLNLSNDALAKFGNKILEGHHHHHH | soluble
6 | MGSDKIHHHHHHMTWRIVHIHQSEKMRLKLDNLVIKKQGDEFTIPLSDISIIVAEGGDTVVTLRLLSALSKYNIALIVCDNHHLPTGIYHSQNGHFRAYKKLQAQLSWAPLQKDKLWQIIIYFKITNQQDVLAMQEKSLSTIQLLSDYREHIELGDRTNREGHAAKVYFNELFGKQFVRLTQQETDAVNAGLNYGYTIFRAQMARIIAGYGLNALIGIFHKNEYNQFNLADDLMEPFRQIVDVWVYMNLREADFLTYQHRLELTNLLNAKIRYGKENCSVTVAMDKFVKGFIRCIEDKDTNQFFCPVVSSLEMEKL | not soluble
7 | MSERLYYFVIVGRDDRVLYDLLYPASLSELDWRTSSELSSPAERGDFEPHHFIPSIQVLLQFVAYSALDHIEEKYWLTSARSLKHIFRFRDWSASVQLTPNAATRFVLVHGASDDASRNVRAFLHAVYEAYVPHVVCNPFQEEDAPITSKRFHEVAKNLAKRYFSG | not soluble
8 | MQFERISTEQKKLSLIQTFLHQNALKLDEQIEYFVVGYNDNEQIVVCGGLAGNIIKCVAIDESLRGSGVALQLITELVDLAYTLKRPHLFIYTKPEYATLFKSCGFYIISDANPYVVLLENSATRLQKQCSLWEKMRVDGNRIGSIVMNANPFTLGHRYLIEQALQQCDHLHLFIVGEDASQFSYTERFEMIQQGIFDLSNITLHSGSDYIISRATFPNYFLKDQLITDESYFEIDLKLFRLHIAQALGITHRFVGTELNCPVTAEYNRQMHYWLMDAEMNAPKINVIEIPRKTASNHIISASTVRKHLAEKNWAQLAEFVPMTTLNYLQKCGRF | soluble
9 | MDERIQALRKEVDRVNREILRLLSERGRLVQEIGRLQTELGLPHYDPKREEEMLAYLTAENPGPFPDETIRKLFKEIFKASLDLEERQDQKKFLYSKRHKPEPTRVRVKDVVFGEKPLLIAGPCSIESEEQIMATARFLAARGVRVLRGGAFKPRTSPYGFQGLGVEGLKLGRKAADAFGMVFVTEVMDTRDVEVVAEYADILQIGARNMQNFALLKEVGKARRPVLLKRGLSATMEEWFYAAEYILAQGNEQVILAERGIRTFERWTRNTLDLSAVALAKQETHLPVVVDVTHAAGRTDLLAPLARAALAVGADGVHVEVHPNPKVALSDNQQQMDFAQFDRFLEAIRDLLQAP | soluble
10 | MMEPITKETRFNELPQQIKQKLINIYRSSHQQYLSMEMLKPTKFNLLYSQTQDLQTRNLQKNFKLLVESAEKLKRMWNLNKDEVDFRYLHENLKKSLEEFKEEVMLYKKNEGNTEFLDEIAMTYAMLRNKLESLTKERRA | not soluble
11 | MSLTTLTTALKAGPEAPAILHRCRELVAPALAEAVGGMHPWMREMADYALGRGAAGGAPAAHSQGKGVRQALAVLGAEAAGGPAEAGVPAAVAVELVHTFSLLHDDIMDGDAMRRGRPALWKAYGTGPAVLAGDALFALAVQTLTTASAPGAAHRLSAALGDLVRGQADDLLFAHRPWTGPEAVSVAEYEAMAEHKTGSLLGCALALGAHLAGAPEETAAVLDRTGRHLGVAFQIVDDLLGIWGDPAVTGKPVHGDLRQGKKTFPVLAALATPSGSALEGLLTARDDTAVVRAAAVVEQAGGRSAALREARRHLTVAHGLLASVQPAPRPAADLRTLLSALSRRTIEGHHHHHH | soluble
12 | MGSDKIHHHHHHMSQHETPLYTGLKKHASRQPVQFHIPGHKKGAGMDPEFRQFIGENALSIDLINIEPLDDLHAPKGIIKQAQDLAAEAFGADHTFFSVQGTSGAIMTMVMAVCGPGDKIIIPRNVHKSIMTAIVFSGAVPIFIHPEIDNELGISHGITLESAKRALTEHPDAKGLLVINPTYFGVAADLKSIVELAHSFDVPVLVDEAHGVHIHFHDELPLSAMQAGADIAATSVHKLGGSLTQSSILNMREGLVSKDRVQSILSMLTTTSTSYLLLASLDVARKRLATEGRQLAEETLKLANQTRDRLNQIEGIYCVGSEILGSKAAYSYDPTKLIISVKSLGLTGHDVEKWLRESFNIEVELSDLYNILCIFTPGDSQNDADRLVEALTEIAQQMSEQDVTHQQTEVLLPEIPLLAMTPRDAFYANTEVIPLKEASGRIIAEFVMVYPPGIPIFIPGEIITEENISYIFKNLDAGLPVQGPEDSTLHMIRVIKEQKAIQ | not soluble
13 | MAGQSKIIVGGVIGGTSEQEPKGFLDLPVELYQKIIGKLDLHERFRVRKSNQTLRQFIDQMDPAISQIRVSISDSDKCDDWVSRSVRVMAEMLSSSIYPDVKNISTCGLPSSQIAQILPSFQAGKLENLDLYYCGKPTAEDMETIVNSDQWKNAKNISGFRGLSNIRIKDLLHFSLVCVDYATISVETAIEIKDILLTSSNIKHAYFTSKSVLDVNVIRVFDPKAAKVHRKRNLSNLVRNTDFADFTFSSNQKVLRFKKKN | not soluble
14 | GSHMNQCPEHSQLTTLGVDGKEFPEVHLGQWYFIAGAAPTKEELATFDPVDNIVFNMAAGSAPMQLHLRATIRMKDGLCVPRKWIYHLTEGSTDLRTEGRPDMKTELFSSSCPGGIMLNETGQGYQRFLLYNRSPHPPEKCVEEFKSLTSCLDSKAFLLTPRNQEACELSNN | soluble
15 | MGSDKIHHHHHHHPCARLSVRMSSTGIDRKGVLANRVAVVTGSTSGIGFAIARRLARDGAHVVISSRKQQNVDRAMAKLQGEGLSVAGIVCHVGKAEDREQLVAKALEHCGGVDFLVCSAGVNPLVGSTLGTSEQIWDKILSVNVKSPALLLSQLLPYMENRRGAVILVSSIAAYNPVVALGVYNVSKTALLGLTRTLALELAPKDIRVNCVVPGIIKTDFSKVFHGNESLWKNFKEHHQLQRIGESEDCAGIVSFLCSPDASYVNGENI | not soluble
16 | MNYTLKNDHLNVVVDTFGAEMHSIQHDDIEYLWQADAKFWGRHAPVLFPIVGKLKNGEYRYNDKTYKMGGHGFARDNDFELIKKSADELVFELRDNEDSLNHYPFHFVFRVSYKLVDNKIRVRYEVKNEDEKFMSFGVGAHPAFNVPLKNGTFEDYQLTISPDEKRTFIPLDPPSGTLKLDERVESQVSQLPLTRALFDKDALVYTSSKEMKVSLTNKLDDHGVSLTWKNMPYFGLEHHHHHH | not soluble
17 | MGSDKIHHHHHHMINRELYMEQITPFIDKPFVKVITGIRRCGKSVVLRLIREELLRRGVSEDYIIYMNFESFEWIDMKEAKALYAHIREATKASGKYYILLDEIQEVTDWEKAVNAFLVDLDVDIYVTGSNSRLLSSEFSTYLAGRYVAFHIMTLSFREYLLFHDLPLTISVSDRKTEFLKYLRMGGFPAIHTANYDYNAIYKIVYDIYSSVILRDTVQRHSIRNVEMLERVVKFVFDNIGNKLNAKNIADYFKSQQRKVDINTIYNYLNALDSAFVIQRIPRYDIKGKEILQTNEKYFVSDLSLIYSVMGYRDRLIGGMLENLVCMELKRRGYEVYVGKQDEKEVDFVAIRREEKIYVQVTYQLGLQATIDREFAPLLAIDDHYPKYVVSMDDLWQDNIEGVKHRHIADFLLDEW | not soluble
18 | MAHHHHHHMARRPSRCYRFCKNKPYPKSRFCRGVPDPKIRNFDIGRRRATVDEFPVCIHVVSRELEQIASEALEAARIQANKYMVKRANKDVFHMRTRAHPFHVLRINKMLSCAGADRLQTGMRGAFGKPNGVCARVRIGQILLSMRTKEAYVPQAFEALRRAKMKFPGRQIIVMSKYWGFTNILRTEYEALRDAGKLEQRGTHCKLIAPKGKITMRNVMA | not soluble
19 | MAKEIYSKYPMVKYLRKEALPTALCPGCGGGTVLNAFANAIDQLKIDPRDLVVVSGIGCSAWIASPYFLADTLHTTHGRAIAFATGVKVGLPDKYVVVISGDGDLASIGGNHLIHAARRNIDITVILVNNFIYGMTGGQVAPTTPFGAITTTTPYRNIEHPLNIAETVAAAGASYVARWTTAHVYQLIESIKKAITTKGFSLVEVISQCPVQFGRRNKMKQPAEMLRWFLKNSVPISKAKNMSEEELEGKFIVGEFVNRRKPEFVGELNKLIREVQSKFKEE | not soluble
20 | MSIASVASVFKGEHAVGSTVTVRGWVRTRRDSKAGISFLAVYDGSCFNPIQGVVPNSLENYDNEVLKLTAGCSVIVTGDIVESPGAGQAYELQVTAVEVTGWVEDPDTYPMAAKRHSIEHLRELAHLRPRTNIIGAVARVRNCLSQAIHRFYHENGFVWVSTPLITASDCEGAGEMFRVSTLDMENLPRTSDGKVDYDKDFFGKEAFLTVSGQLNGETYACALSKIYTFGPTFRAENSNTSRHLAEFWMVEPEVAFATLNDIAGLAEGMLKYAFNAVLTERMDDLQFFAQHVDKTVIERLQSFVSSDFAQVDYTDAVEILQKSGREFEFPVSWGIDLSSEHERYLAEEHFKAPVVVKNYPKDIKAFYMRLNEDGKTVAAMDVLAPGIGEIIGGSQREERLDVLDMRLEEMDLNKEDYWWYRDLRRYGTVPHAGFGLGFERLVSYVTGVSNIRDVIPFPRAPRTANFLEHHHHHH | soluble
21 | MRVELIYDKRNVGSLANATEIIRAELTKRVHRVFPDAEVNVKAMHANGINTNASKQEKSVLNRLVEEMFDEADEWLNNEF | not soluble
22 | MNEKYEAVIGLEIHVQMDTKTKMFCGCKVEFGAEPNTNVCPVCLGMPGALPIVNKRAVEYAIRASLALNCEVHEESVFARKHYFYPDLPKGYQISQYEKPLATNGWVELNLPNGEKKKVRIRRLHIEEDAGKNIHEGDKTLVDLNRAGTPLMEIVTEPDIRTPEEARLFLEKLRNIMRYAGVSKADMEKGQLRCDINVSIRPKGSKEFGTRVEIKNVNSFRFVQKALEYEIERQINVVEEGGEVVQETRTFDPQTGKTYPMRTKEEAEDYRYFPDPDLVPLKVKKEWIEEIKKNMPELPDQRFERLIKEYGLSEYEAGILVNHKEVGDFFEEAVRHFKEPKGIVNWLINDLLGLLRDKGISIEESPVKPEHLAELVKLIKEKVISTKIGKEVIKEMVETGKTPSQIVEEKGLKQITDENQIKELVKKIFEKHPKEVERLKQGEEKLIGFFVGQVMRETRGKANPQVVNKVIRELVKEV | soluble
